For 94 variants, protein stability index results are on record in the supplement of paper PMC10567573.

B1: WEE1 (parent)
chain: INPFTPDSLLLHSSGQCRRRKRTY
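Also: lentivirally expressed fusions sorted by FACS into six bins by GFP to DsRed ratio, PSI derived from sequencing read proportions per bin multiplied by bin number.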

Variants of B1 are the subject of this data set. Briefly: protein stability index of a GFP-peptide fusion (GPS, HEK-293T) (PSI 1-6); higher = more stable. The conditions noted are these: c terminus: a fixed tail appended.
As for INPFTPDSLLLHSSGQCRGRKRTY, the protein stability index is 3.34. With INPFTPDSLLLHSSGQCRHRKRTY the figure was 3.32. Consider INPFTPDSLLLHSSGQCRFRKRTY, for which the protein stability index was 2.62. With INPFTPDSLLLHSSGQCRVRKRTY the figure was 2.69; with INPFTPDSLLLHSSGQCRNRKRTY, 3.38; with INPFTPDSLLLHSSGQCRQRKRTY, 3.27.

For INPFTPDSLLLHSSGQCRWRKRTY, the protein stability index was found to be 2.66. Take INPFTPDSLLLHSSGQCRARKRTY: the protein stability index was 3.08. Regarding INPFTPDSLLLHSSGQCRPRKRTY, the protein stability index came to 3.03. Take INPMTPDSLLLHSSGQCRRRKRTY: the protein stability index worked out at 4.04. With INPKTPDSLLLHSSGQCRRRKRTY the figure was 4.27; with INPGTPDSLLLHSSGQCRRRKRTY, 4.05.

Take INPFTPDSLLLHSSGQCRRRKCTY: the protein stability index was determined as 3.17.

For INPFTPDSLLLHSSGQCRRRKYTY, the protein stability index was determined as 2.87. The result for INPFTPDSLLLHSSGQCRRRKVTY reads 2.8; that for INPFTPDSLLLHSSGQCRRRKQTY, 3.19; that for INPFTPDSLLLHSSGQCRRRKMTY, 3.08. Take INPFTPDSLLLHSSGQCRRRKFTY: the protein stability index stood at 2.71.

Take INPFTPDSLLLHSSGQCRRRKKTY: the protein stability index came out at 3.59. With INPFTPDSLLLHSSGQCKRRKRTY the figure was 3.26. Turning to INPFTPDSLLLHSSGQCPRRKRTY, the protein stability index was found to be 3.57. In the case of INPFTPDSLLLHSSGQCQRRKRTY, the protein stability index came to 3.63. The result for INPFTPDSLLLHSSGQCDRRKRTY reads 3.78; that for INPFTPDSLLLHSSGQCVRRKRTY, 3.83. With INPFTPDSLLLHSSGQCGRRKRTY the figure was 3.31; with INPFTPDSLLLHSSGQCMRRKRTY, 2.81; with INPFTPDSLLLHSSGQCARRKRTY, 3.46.

Turning to INPFTIDSLLLHSSGQCRRRKRTY, the protein stability index was found to be 2.79.

Consider INPFTTDSLLLHSSGQCRRRKRTY, for which the protein stability index worked out at 3.2.

Take INPFTADSLLLHSSGQCRRRKRTY: the protein stability index is 4. Turning to INPFTQDSLLLHSSGQCRRRKRTY, the protein stability index came to 3.09. The result for INPFTEDSLLLHSSGQCRRRKRTY reads 3.71. With INPFTKDSLLLHSSGQCRRRKRTY the figure was 3.26. Regarding INPFTWDSLLLHSSGQCRRRKRTY, the protein stability index stood at 2.21. INPFTSDSLLLHSSGQCRRRKRTY: the protein stability index was found to be 3.61. In the case of INPFTYDSLLLHSSGQCRRRKRTY, the protein stability index was determined as 2.56. In the case of INPFTGDSLLLHSSGQCRRRKRTY, the protein stability index was determined as 3.58. For the variant INPFTPDSLNLHSSGQCRRRKRTY, the protein stability index turned out to be 3.85. In the case of INPFTPDSLPLHSSGQCRRRKRTY, the protein stability index is 4.07. As to INPFTPDSLMLHSSGQCRRRKRTY, the protein stability index is 3.38.

As to INPFTPDSLKLHSSGQCRRRKRTY, the protein stability index amounted to 3.2.

For the variant INPFTPDSLHLHSSGQCRRRKRTY, the protein stability index worked out at 4.01. INPFTPDSLYLHSSGQCRRRKRTY: the protein stability index came out at 2.89. As to INPFTPDSLLLHSSGQCRRRKRTP, the protein stability index turned out to be 3.81.

For INPFTPDSLLLHSSGQCRRRKRTA, the protein stability index was determined as 4.33. Consider INPFTPDSLLLHSSGQCRRRKRTE, for which the protein stability index came out at 3.13. With INPFTPDSLLLHSSGQCRRRKRTR the figure was 4.52; with INPFTPDSLLLHSSGQCRRRKRTD, 4.27. Take INPFTPDSLLLHSSGQCRRRKRTM: the protein stability index turned out to be 3.48.

INPFTPDSLLLHSSGQCRRRKRTC: the protein stability index was 3.8. Regarding INPFTPDSLLLHSSGQCRRRKRTT, the protein stability index stood at 3.96.

With INPFTPDSLLLHSSGQCRRRKRTG, the protein stability index was 4.07. Regarding INPFTPDSLLLHSSGQCRRRKRTW, the protein stability index is 3.36.

In the case of INPFTPDSLLLHSSGQCRRRKRTF, the protein stability index turned out to be 3.12. On to INPFTPDSLLLHSSGQCRRRKRTQ, for which the protein stability index was determined as 3.69. With INPFTPDNLLLHSSGQCRRRKRTY, the protein stability index is 3.75. With INPFTPDELLLHSSGQCRRRKRTY, the protein stability index turned out to be 4.08. Take INPFTPDDLLLHSSGQCRRRKRTY: the protein stability index turned out to be 4. As for INPFTPDTLLLHSSGQCRRRKRTY, the protein stability index was found to be 2.81. In the case of INPFTPDHLLLHSSGQCRRRKRTY, the protein stability index amounted to 3.83. Turning to INPFTPDRLLLHSSGQCRRRKRTY, the protein stability index turned out to be 2.71.

On to INPFTPDGLLLHSSGQCRRRKRTY, for which the protein stability index is 3.44. Consider INPFTPDKLLLHSSGQCRRRKRTY, for which the protein stability index worked out at 3.35. With INPFTPKSLLLHSSGQCRRRKRTY, the protein stability index came out at 3.31. Take INPFTPWSLLLHSSGQCRRRKRTY: the protein stability index turned out to be 3.99. With INPFTPRSLLLHSSGQCRRRKRTY the figure was 3.39; with INPFTPASLLLHSSGQCRRRKRTY, 3.13. On to INPFTPCSLLLHSSGQCRRRKRTY, for which the protein stability index stood at 2.46. For the variant INPFTPDSLLDHSSGQCRRRKRTY, the protein stability index amounted to 4.11.

As to INPFTPDSLLMHSSGQCRRRKRTY, the protein stability index turned out to be 3.94.

Take INPFTPDSLLGHSSGQCRRRKRTY: the protein stability index came to 3.95. The result for INPFTPDSLLQHSSGQCRRRKRTY reads 3.39; that for INPFTPDSLLFHSSGQCRRRKRTY, 3.01; that for INPFTPDSLLIHSSGQCRRRKRTY, 3.97. Consider INPFTPDSLLTHSSGQCRRRKRTY, for which the protein stability index amounted to 3.54. As to INPFTPDSLLCHSSGQCRRRKRTY, the protein stability index came out at 3.75.

Take INPFTPDSLLNHSSGQCRRRKRTY: the protein stability index worked out at 3.92. With INPFTPDSLLYHSSGQCRRRKRTY the figure was 3.75. As for INPFTPDSLLRHSSGQCRRRKRTY, the protein stability index was found to be 3.38. Take INPFTPDSLLLHISGQCRRRKRTY: the protein stability index stood at 2.85. With INPFTPDSLLLHTSGQCRRRKRTY the figure was 3.74. Turning to INPFTPDSLLLHVSGQCRRRKRTY, the protein stability index was determined as 2.61.

As for INPFTPDSLLLHNSGQCRRRKRTY, the protein stability index is 3.74. INPFTPDSLLLHYSGQCRRRKRTY: the protein stability index came out at 3.29. With INPFTPDSLLLHFSGQCRRRKRTY, the protein stability index was determined as 2.3.

Take INPFTPDSLLLHGSGQCRRRKRTY: the protein stability index was found to be 3.17.

With INPFTPDSLLLHMSGQCRRRKRTY, the protein stability index stood at 2.84. For INPFTPDSLLLHDSGQCRRRKRTY, the protein stability index stood at 4.08. Regarding INPFTPDSLLLISSGQCRRRKRTY, the protein stability index is 3.6.

Take INPFTPDSLLLRSSGQCRRRKRTY: the protein stability index came to 3.59. For INPFTPDSLLLCSSGQCRRRKRTY, the protein stability index stood at 2.57. Consider INPFTPDSLLLKSSGQCRRRKRTY, for which the protein stability index is 3.54. Take INPFTPDSLLLWSSGQCRRRKRTY: the protein stability index worked out at 2.19. As to INPFTPDSLLLQSSGQCRRRKRTY, the protein stability index amounted to 2.94.
